The nature of this series: yeast display, Sf9 membrane polyspecificity reagent, FACS + sequencing; frameworks hold sequencing errors. In a few lines: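 Nanobodies from a synthetic yeast display library (Saccharomyces cerevisiae BJ5465), induced 36–48 hours with galactose, were stained 1 hour at 4 °C with 10% biotinylated, detergent-solubilized Sf9 membrane reagent, enriched on streptavidin microbeads, then FACS-sorted. Anti-HA (expression) and streptavidin (reagent binding) fluorescence set low and high (top ~1%) gates. Polyreactivity labels come from the gate of origin. Genes were colony-PCR amplified, MiSeq 2 × 250 sequenced and filtered by CDR length.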
“QVQHVESGGGLVQAGGSLRLSCAASGSIIDIYAMGWYRQAPGKERELVASISGGAGSTNYADSVKGRFTISRDNAKNSVYLQMNSLKPEDTGVDDFAAVVYVPVYFQHKFDVEYEYWGQGTQVTVSS”: the “polyreactivity (PSR sort gate)” value is listed as “low polyreactivity”.
Then “QVQHVESGGGLVQAGGSLRLSCAASGSIIPSNVMGWYRQTPGKDRELVAAISNTGSTNYADSVKGRFTISRDNAKNSVYLQMNSLKPEDTAVYYCNADASYGFWSLLDYDYWGQGTQVTVSS”, with “low polyreactivity”.
As for “QVQHVESGGGLVQAGGSLRLSCAASGSILGWYAMGWYRQAPGKERELDAAITTAGDSTYYADSVKGRFTISRDNAKNTVYLPLNSLKPEDTAVYYCATRYQVRRGSGPSYDYWGQGTQVTVSS”, the “polyreactivity (PSR sort gate)” value is “high polyreactivity”.
Then “QVQHVESGGGLVQAGGSLRLSCAASGSILRSYAMGWFRQAPGKERELVAVINGSGGRTYYADSVKGRFTISRDNEKNTVYLQMISLKPEDTAVYYCNADPGGRYPRRGYAHEGDYWGQGTQVTVSS”, with “low polyreactivity”; and “QVQHVESGGGLVQAGGSLRLSCAASGSILYLYAMGWYRQAPGKERELVAAISLGDGSTYYADSVKGRFTISRDNAKNTVYLQMNSLKPEDTAVYYCNADRYTYWQDYNYWGQGTQVTVSS”, with “low polyreactivity”; and “QVQHVESGGGLVQAGGSLRLSCAASGSIYISNAMGWYRQAPGKERELVAAITSSGGSTYDADSVKGRFTISRDNAKNTVSLQMNSLKPEDTAVYYCAARPGRNYYYWGQGTQVTVSS”, with “high polyreactivity”.
The same measure for “QVQHVESGGGLVQAGGSLRLSCAASGSTFGRNAMGWYRQAPGKERELVAAINWSDGSTHYADSVKGRFTISRDNAKNTVYLQMNSLKPEDTAVYYCGADAWSWPVDYNYWGQGTQVTVSS”: “low polyreactivity”.
On to “QVQHVESGGGLVQAGGSLRLSCAASGSTFGWYAMGWYRQAPGKERELVAAITRRGTRTYYADSVKGRFTISRDNAKNTVYLQMNSLKPEDTAVYYCNARGFPGKFGYWGQGTQVTVSS”, for which the “polyreactivity (PSR sort gate)” value was “high polyreactivity”.
Turning to “QVQHVESGGGLVQAGGSLRLSCAASGSTFPANAMGRYRQAPVKERELVAVISSGGRTYYADSVKGRFTISRDNAKNTVYLQLNSLKPEDTEVYYCAAGSYAGSGPSPWLEYWGQGTQVTVSS”, the “polyreactivity (PSR sort gate)” value is reported as “high polyreactivity”.
With “QVQHVESGGGLVQAGGSLRLSCAASGSTFRPYAMGWYRQAPGKERELVARITVSGDSTYYADSVKGRFTISRDNAKNTVYLQMNSLKPEDTAVYYCAREFDYSLSGFDYWGQGTQVTVSS”, the “polyreactivity (PSR sort gate)” value is “low polyreactivity”.
Then “QVQHVESGGGLVQAGGSLRLSCAASGSTFTAYAMGWYRQAPGKVSELVAVITSGGGTYYADSVKVRFTISRDNANNTDYLQMNSLKPEDTAVYYCHSARTYAGTYIYRYGYWGQGTQVTVSS”, with “high polyreactivity”; and “QVQHVESGGGLVQAGGSLRLSCAASGSTFTYNAMGWYRQAPGKEREKVASISSGTTTYYADSVKGRFTISRDNAKNTVYLQMNSLKPEDTAVYYCAVDSWSRVQGWLAHNYDYWGQGTLVTVSS”, with “low polyreactivity”.
Then “QVQHVESGGGLVQAGGSLRLSCAASGSTFVQYAMGWYRQAPGKERELVAAIRGRGDSTYYADSVKGRFTISRDNAKNTVYLQMNSLKPEDTAVYYCAARGQGSRGMYYWGQGTQVTVSS”, with “low polyreactivity”; and “QVQHVESGGGLVQAGGSLRLSCAASGSYLRYYAMGWYRQAPGKERELVAAISRSGTNTYYADSVKGRFTFSPDNAKNSVYLQMNSVKPEVTAVYYCAARGYYRDYDSWGQGTQVTVSS”, with “high polyreactivity”.
“QVQHVESGGGLVQAGGSLRLSCAASGYIFPGSAMGWYRPAPGKERELVAAISTSGGYTYYADSVKGRFTISRDNAKNTVYFQMNSLNPEVTAVYYCAADRYSTDPYAKGTEFYYWGQGTQVTVSS”: the “polyreactivity (PSR sort gate)” value was “low polyreactivity”.
“QVQHVESGGGLVQAGGSLRLSCAASGYIFVRNAMGWYRQAPGKERELVAAISGSGGSTYYADSVKGRFTISRDNAKNTVYLQMNSLKPEDTAVYYCAADYATVTWRGIAYDYWGQGTQVTVSS”: the “polyreactivity (PSR sort gate)” value is listed as “low polyreactivity”.
Take “QVQHVESGGGLVQAGGSLRLSCAASVSIFEYYAMGWDRRAHGKERELVARITDSGGSTYADSVKGRFTISRDNAKNTVYLQMSSLKPEDTAVYYCAADDNYFDFDYWGQGTQVTVSS”: the “polyreactivity (PSR sort gate)” value is reported as “low polyreactivity”.
For the sequence “QVQHVESGGGLVQAGGSLRLSCAASVSIFYDYAMGWYRQAPGKERELVAAINKSGGSTYYADSVKGRFTISRDNAKNTVYLQMNSLKPEDTAVYYCIARKRLGPVRYGYWGQGTQVTVST”, the “polyreactivity (PSR sort gate)” value was “high polyreactivity”.
In the case of “QVQHVESGGGLVQAGGSLRLSCAASVSIFYGYAMGWSRQAPGKERELVATIRFITGSTYYADSVKGRFTISRDNAKNTVYLQMNSRKPEDTAVYYCAAVYVGYYDNYDYWGQGTQVTVSS”, the “polyreactivity (PSR sort gate)” value is recorded as “low polyreactivity”.
The same measure for “QVQHVESGGGLVQAGGSLRLSCAAYGRTFGYYAMGWNRQAPGKDRELVAAITSGGRTNYADSVKGRFTISRDNAKNTVYLQMISQKPEDTAVYYCAATWNWPLSERKFNYWGQGTQVTVSS”: “low polyreactivity”; for “QVQHVESGGGLVQAGGSLRLSCASSGRIFYFYAMGWYRQAPGKLRELVAAISTSGGSTYYADSVKGRFKISRDNATNTVYLQMNSLKPEDPAVYYCAGRFRYYGSEYDYWGQGTQVTVSS”: “low polyreactivity”.
Then “QVQHVESGGGLVQAGGSLRLSCASSGSIFVGNAMGWYRQAPGKERELVAAISRRGGRPYYADSVKGRFTISRDKAKNTVYLQMNSLKPEDTAVYYCAAEYTYQNRIRFDYWGQGTQVTVSS”, with “high polyreactivity”; and “QVQHVESGGGLVQAGGSLRLSCDAYGSTFYYYAMGWYRQAPGKERELVASISRGGSTNYAYSVKGRFTISRDNAKNTVYLQMNSLKAEDTAVYYCNADRYLRPKSWWTVYYERDYWGQGTQVTVSS”, with “low polyreactivity”; and “QVQHVESGGGLVQAGGSLRLSCSASGFTLTAYAMGWSRQPPGKEREFVAAISTSGTRTYYADSVKGRFTISRDNAKNTVYLQMNSLKQEDTAVYYCAARYSGYQYWKFNYWGQGTQVTVSS”, with “high polyreactivity”.
With “QVQHVESGGGLVQAGGSLRLSCSASGRTFSSYVMGWYRQAPGKERELVATITSGGITYYADSVKGRFTISRDNAKNTVYLQMNSLKPEDTAVYYCARAPPGDRFVRYDYWGQGTQVTVSS”, the “polyreactivity (PSR sort gate)” value was “high polyreactivity”.
The same measure for “QVQHVESGGGLVQAGGSLRLSFAASGSTFAWYPMGWYRQAPGKERELVAAITRDGSTYYADSVKGRFTISRDNAKNTVYLQMNSLKPEDTAVYYCAADLSYWRGGHSRYYWGQGTQVTVSS”: “low polyreactivity”; for “QVQHVESGGGLVQAGGSLRLSSAASGGTFNVYAMGWYRQAPGKESELVAAIRWSGGSTYYADSVKGRFTISRDNAKNTVYLQMNSLKPEDTAVYFCAARFYGRSQTYGSWGLGTQVTVSS”: “high polyreactivity”.
As for “QVQHVESGGGLVQAGGSLRLSSAASGHTFHRYAMGWYRQARWKESELVAAISDSGSSSYYADSVKRRFTISRDYAKYTVYLQMNSLKPEDTALYYCAAVSGFFDQYDYWGQGTQVTVSS”, the “polyreactivity (PSR sort gate)” value was “low polyreactivity”.
The same measure for “QVQHVESGGGLVQAGGSLRLTCAASGFIFVIYAMGWYRTAPGKERELVAAITESGDRTYYADSVKGGFTISRDNAKNTVYLQMNSLKPEDTAVYYCNALLSYGYHAAYGYWGQGTQVTVSS”: “high polyreactivity”.
Then “QVQHVESGGGLVQAGGSLRLTCAASGRIIAGYAMGWYRQATGKEREMVAAISSRGGSTYYADSVKGRFSISRDNAKNTVDLQMNSLKPVDTAVYYCAKRSWYSYVYGSGDYWGQGTQVTVSS”, with “high polyreactivity”; and “QVQHVESGGGLVQAGGSRRLSCAASGSIFFYAMGWYRQAPAKERVLVAAITSAGSTNFADSVKGRFTISRDNAKNTVYLQMYSLKPEDTAVYYCAAGYVGYSWSYPYGWVEYDYWGQGTQVTVSS”, with “high polyreactivity”.
The same measure for “QVQHVESGGGLVQAGRSLRLSCAASGILRRYAMGWYIQERGKERELVAAITRTGGRTYYADSVKGRFTISRDNAKNTVYLQMNSLKPEDTAVYYCATDRYVVSGMDYWGQGTQVTVSS”: “high polyreactivity”; for “QVQHVESGGGLVQAGVSLRLSCAASGLTFTRYAMGWDRQAPGKERELVAAISWSGGSTYYADSVKGRFTISRDNAKNTVYLQMNSLKPEDTAVYYCAAEPYKQYTGYYYSGFEFWGQGTQVTVSS”: “high polyreactivity”.
For the sequence “QVQHVESGGGLVQAGVSLRLSCAASGSIFVYYAMGWYRQAPGKERELVASISESDGSTSYADSVKGRFTISRDNAMNTVYLQMNSLKPEDTAVSYCAADPYFYWYSPSFDYWGQGTQVTVSS”, the “polyreactivity (PSR sort gate)” value was “low polyreactivity”.
The same measure for “QVQHVESGGGLVQAGVSLRLSCAATGRIFGRYVMGWYRQAPGKETELVARIRRNVGSTYYADSVKGRFTISRDNAKYPVYLQMNSLKPEDTAVYYCAAESYDTWRRYESWGQGTQVTVSS”: “high polyreactivity”; for “QVQHVESGGNLFKAGGSLRLSCAASGITFVYNAMGWYRPAPGKERELVDGITWSGSSTYYADSVKGRFTISRDNAKNTVYFHMNSLKPDDTAVYYCDAYLYDRTTRYTYYYWGQGTQVTVSS”: “high polyreactivity”; for “QVQHVESGRGLVQAGGSLRLSCDASGFTFRSYPIGWYRHAPGKERELVAGITWRGGRTYYADSVKGRFTISRDNAKNTVYLQMNSLKPEDTAVYNCAKLYRYIYGGMDYWGQGTQVTVSS”: “high polyreactivity”.
The same measure for “QVQHVESGRGLVQAGGSLRLSCSASVRIFYNYAMGWYRQAPGKERELVAAISGSGGSTYYADSVKGRFTISRDNAKNSVYLQMNSQKPEDTAVYYCNKAVRRYPRFDYWGQGTQVTVSS”: “low polyreactivity”; for “QVQHVESRGGLVQAGGSLRLSCAASGFTSDSNAMGWYRQAPGKERELVAAIDSGGGSTYYADSVKGRFTISRDNAKNTVYLQMISLKPEDTAVYYCNAEQTPFVASLRVGEYGYWGQGTQVTVSS”: “low polyreactivity”; for “QVQHVESRGGLVQAGGSLRLSCAASGRTFQANAMGCYRQAPGKERELVAAITGRGGTTYYADSVKGRFTISRDNAKNTVYLQMNSLKPEDTAVYYCARALSGYGFWGYEYWGQGTQVTVSS”: “low polyreactivity”.

Source of the values: the nanobody polyreactivity screen of Harvey et al. (2022).
